Experimental data reported in US20190040130A1 (Alector, published 2019).

T1: human TREM2 expressed on cells (human, UniProt Q9NZC2 19-230)
T1 construct: also called huT2 BW; cell expressed TREM2
T1 sequence: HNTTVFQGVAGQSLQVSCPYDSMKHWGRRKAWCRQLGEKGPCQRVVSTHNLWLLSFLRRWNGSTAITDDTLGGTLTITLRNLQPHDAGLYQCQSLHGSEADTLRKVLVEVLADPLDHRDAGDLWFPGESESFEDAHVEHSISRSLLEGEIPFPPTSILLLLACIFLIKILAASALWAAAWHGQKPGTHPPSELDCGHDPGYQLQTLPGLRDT

B1: AL2p-h77 (antibody, IgG1, V domains shown)
VH: QVQLVQSGAEVKKPGASVKVSCKASGYAFSSSWMNWVRQAPGQRLEWIGRIYPGDGDTNYAQKFQGRVTITADTSASTAYMELSSLRSEDTAVYYCARLLRNQPGESYAMDYWGQGTLVTVSS
VL: DVVMTQSPDSLAVSLGERATINCRSSQSLVHSNGYTYLHWYQQKPGQSPKLLIYKVSNRFSGVPDRFSGSGSGTDFTLTISSLQAEDVAVYYCSQSTRVPYTFGGGTKVEIK
notes: IgG1; Fab in monovalent BLI
B2: AL2p-h50 (antibody, IgG1, V domains shown)
VH: QVQLVQSGAEVKKPGSSVKVSCKASGYAFSSSWMNWVRQAPGQGLEWMGRIYPGDGDTNYAQKFQGRVTITADESTSTAYMELSSLRSEDTAVYYCARLLRNQPGESYAMDYWGQGTLVTVSS
VL: DVVMTQTPLSLSVTPGQPASISCRSSQSLVHSNGYTYLHWYLQKPGQSPQLLIYKVSNRFSGVPDRFSGSGSGTDFTLKISRVEAEDVGVYYCSQSTRVPYTFGQGTKLEIK
notes: IgG1; Fab in monovalent BLI
B3: AL2p-h19 (antibody, IgG1, V domains shown)
VH: QVQLVQSGAEVKKPGSSVKVSCKASGYAFSSSWMNWVRQAPGQGLEWMGRIYPGDGDTNYAQKFQGRATITADTSTSTAYMELSSLRSEDTAVYYCARLLRNQPGESYAMDYWGQGTLVTVSS
VL: DIVMTQTPLSLSVTPGQPASISCRSSQSLVHSNGYTYLHWYLQKPGQSPQLLIYKVSNRFSGVPDRFSGSGSGTDFTLKISRVEAEDVGVYYCSQSTRVPYTFGQGTKLEIK
notes: IgG1; Fab in monovalent BLI
B4: AL2p-h21 (antibody, IgG1, V domains shown)
VH: QVQLVQSGAEVKKPGASVKVSCKASGYAFSSSWMNWVRQAPGQGLEWMGRIYPGDGDTNYAQKFQGRVTMTRDTSTSTVYMELSSLRSEDTAVYYCARLLRNQPGESYAMDYWGQGTLVTVSS
VL: DVVMTQTPLSLSVTPGQPASISCRSSQSLVHSNGYTYLHWYLQKPGQSPQLLIYKVSNRFSGVPDRFSGSGSGTDFTLKISRVEAEDLGVYFCSQSTRVPYTFGQGTKLEIK
notes: IgG1; Fab in monovalent BLI
B5: AL2p-h22 (antibody, IgG1, V domains shown)
VH: QVQLVQSGAEVKKPGASVKVSCKASGYAFSSSWMNWVRQAPGQGLEWIGRIYPGDGDTNYAQKFQGRVTMTADTSTSTVYMELSSLRSEDTAVYYCARLLRNQPGESYAMDYWGQGTLVTVSS
VL: DVVMTQTPLSLSVTPGQPASISCRSSQSLVHSNGYTYLHWYLQKPGQSPQLLIYKVSNRFSGVPDRFSGSGSGTDFTLKISRVEAEDLGVYFCSQSTRVPYTFGQGTKLEIK
notes: IgG1; Fab in monovalent BLI
B6: AL2p-h23 (antibody, IgG1, V domains shown)
VH: QVQLVQSGAEVKKPGASLKISCKASGYAFSSSWMNWVRQAPGQGLEWIGRIYPGDGDTNYAQKFQGRATLTADTSTSTAYMELSSLRSEDTAVYYCARLLRNQPGESYAMDYWGQGALVTVSS
VL: DVVMTQTPLSLSVTPGQPASISCRSSQSLVHSNGYTYLHWYLQKPGQSPQLLIYKVSNRFSGVPDRFSGSGSGTDFTLKISRVEAEDLGVYFCSQSTRVPYTFGQGTKLEIK
notes: IgG1; Fab in monovalent BLI
B7: AL2p-h26 (antibody, IgG1, V domains shown)
VH: QVQLVQSGAEVKKPGASVKVSCKASGYAFSSSWMNWVRQAPGQRLEWIGRIYPGDGDTNYAQKFQGRVTITADTSASTAYMELSSLRSEDTAVYYCARLLRNQPGESYAMDYWGQGTLVTVSS
VL: DVVMTQTPLSLSVTPGQPASISCRSSQSLVHSNGYTYLHWYLQKPGQSPQLLIYKVSNRFSGVPDRFSGSGSGTDFTLKISRVEAEDLGVYFCSQSTRVPYTFGQGTKLEIK
notes: IgG1; Fab in monovalent BLI
B8: AL2p-h30 (antibody, IgG1, V domains shown)
VH: QVQLVQSGAEVKKPGASVKVSCKASGYAFSSSWMNWVRQAPGQGLEWMGRIYPGDGDTNYAQKFQGRVTMTADTSTSTAYMELSSLRSEDTAVYYCARLLRNQPGESYAMDYWGQGTLVTVSS
VL: DVVMTQTPLSLSVTPGQPASISCRSSQSLVHSNGYTYLHWYLQKPGQSPQLLIYKVSNRFSGVPDRFSGSGSGTDFTLKISRVEAEDLGVYFCSQSTRVPYTFGQGTKLEIK
notes: IgG1; Fab in monovalent BLI
B9: AL2p-h33 (antibody, IgG1, V domains shown)
VH: QVQLVQSGAEVKKPGSSVKVSCKASGYAFSSSWMNWVRQAPGQGLEWIGRIYPGDGDTNYAQKFQGRATLTADTSTTTAYMELSSLRSEDTAVYFCARLLRNQPGESYAMDYWGQGTLVTVSS
VL: DVVMTQTPLSLSVTPGQPASISCRSSQSLVHSNGYTYLHWYLQKPGQSPQLLIYKVSNRFSGVPDRFSGSGSGTDFTLKISRVEAEDLGVYFCSQSTRVPYTFGQGTKLEIK
notes: IgG1; Fab in monovalent BLI
B10: AL2p-h34 (antibody, IgG1, V domains shown)
VH: QVQLVQSGAEVKKPGSSVKVSCKASGYAFSSSWMNWVRQAPGQGLEWIGRIYPGDGDTNYAQKFQGRATITADTSTSTAYMELSSLRSEDTAVYFCARLLRNQPGESYAMDYWGQGTLVTVSS
VL: DVVMTQTPLSLSVTPGQPASISCRSSQSLVHSNGYTYLHWYLQKPGQSPQLLIYKVSNRFSGVPDRFSGSGSGTDFTLKISRVEAEDLGVYFCSQSTRVPYTFGQGTKLEIK
notes: IgG1; Fab in monovalent BLI
B11: AL2p-h35 (antibody, IgG1, V domains shown)
VH: QVQLVQSGAEVKKPGSSVKVSCKASGYAFSSSWMNWVRQAPGQGLEWMGRIYPGDGDTNYAQKFQGRATITADTSTSTAYMELSSLRSEDTAVYYCARLLRNQPGESYAMDYWGQGTLVTVSS
VL: DVVMTQTPLSLSVTPGQPASISCRSSQSLVHSNGYTYLHWYLQKPGQSPQLLIYKVSNRFSGVPDRFSGSGSGTDFTLKISRVEAEDLGVYFCSQSTRVPYTFGQGTKLEIK
notes: IgG1; Fab in monovalent BLI
B12: AL2p-h42 (antibody, IgG1, V domains shown)
VH: QVQLVQSGAEVKKPGASVKVSCKASGYAFSSSWMNWVRQAPGQRLEWMGRIYPGDGDTNYAQKFQGRVTITRDTSASTAYMELSSLRSEDTAVYYCARLLRNQPGESYAMDYWGQGTLVTVSS
VL: DVVMTQTPLSLSVTPGQPASISCRSSQSLVHSNGYTYLHWYLQKPGQSPQLLIYKVSNRFSGVPDRFSGSGSGTDFTLKISRVEAEDVGVYYCSQSTRVPYTFGQGTKLEIK
notes: IgG1; Fab in monovalent BLI
B13: AL2p-h44 (antibody, IgG1, V domains shown)
VH: QVQLVQSGAEVKKPGASLKVSCKASGYAFSSSWMNWVRQAPGQRLEWIGRIYPGDGDTNYAQKFQGRATLTADTSASTAYMELSSLRSEDTAVYFCARLLRNQPGESYAMDYWGQGTLVTVSS
VL: DVVMTQTPLSLSVTPGQPASISCRSSQSLVHSNGYTYLHWYLQKPGQSPQLLIYKVSNRFSGVPDRFSGSGSGTDFTLKISRVEAEDVGVYYCSQSTRVPYTFGQGTKLEIK
notes: IgG1; Fab in monovalent BLI
B14: AL2p-h47 (antibody, IgG1, V domains shown)
VH: QVQLVQSGAEVKKPGASVKVSCKASGYAFSSSWMNWVRQAPGQGLEWMGRIYPGDGDTNYNGEFRVRVTMTRDTSTSTVYMELSSLRSEDTAVYYCARLLRNQPGESYAMDYWGQGTLVTVSS
VL: DVVMTQTPLSLSVTPGQPASISCRSSQSLVHSNGYTYLHWYLQKPGQSPQLLIYKVSNRFSGVPDRFSGSGSGTDFTLKISRVEAEDVGVYYCSQSTRVPYTFGQGTKLEIK
notes: IgG1; Fab in monovalent BLI
B15: AL2p-h59 (antibody, IgG1, V domains shown)
VH: QVQLVQSGAEVKKPGASVKVSCKASGYAFSSSWMNWVRQAPGQRLEWMGRIYPGDGDTNYAQKFQGRVTITRDTSASTAYMELSSLRSEDTAVYYCARLLRNQPGESYAMDYWGQGTLVTVSS
VL: DIVMTQSPLSLPVTPGEPASISCRSSQSLVHSNGYTYLHWYLQKPGQSPQLLIYKVSNRFSGVPDRFSGSGSGTDFTLKISRVEAEDVGVYYCSQSTRVPYTFGGGTKVEIK
notes: IgG1; Fab in monovalent BLI
B16: AL2p-h24 (antibody, IgG1, V domains shown)
VH: QVQLVQSGAEVVKPGASLKISCKASGYAFSSSWMNWVRQAPGQGLEWIGRIYPGDGDTNYNQKFQGRATLTADTSTSTAYMELSSLRSEDTAVYFCARLLRNQPGESYAMDYWGQGALVTVSS
VL: DVVMTQTPLSLSVTPGQPASISCRSSQSLVHSNGYTYLHWYLQKPGQSPQLLIYKVSNRFSGVPDRFSGSGSGTDFTLKISRVEAEDLGVYFCSQSTRVPYTFGQGTKLEIK
notes: IgG1; Fab in monovalent BLI
B17: AL2p-h25 (antibody, IgG1, V domains shown)
VH: QVQLVQSGAEVKKPGASLKISCKASGYAFSSSWMNWVRQAPGQGLEWIGRIYPGDGDTNYNGEFRVRATLTADTSTSTAYMELSSLRSEDTAVYYCARLLRNQPGESYAMDYWGQGALVTVSS
VL: DVVMTQTPLSLSVTPGQPASISCRSSQSLVHSNGYTYLHWYLQKPGQSPQLLIYKVSNRFSGVPDRFSGSGSGTDFTLKISRVEAEDLGVYFCSQSTRVPYTFGQGTKLEIK
notes: IgG1; Fab in monovalent BLI
B18: AL2p-h27 (antibody, IgG1, V domains shown)
VH: QVQLVQSGAEVKKPGASVKVSCKASGYAFSSSWMNWVRQAPGQGLEWIGRIYPGDGDTNYNGEFRVRATLTADTSTSTAYMELSSLRSEDTAVYFCARLLRNQPGESYAMDYWGQGTLVTVSS
VL: DVVMTQTPLSLSVTPGQPASISCRSSQSLVHSNGYTYLHWYLQKPGQSPQLLIYKVSNRFSGVPDRFSGSGSGTDFTLKISRVEAEDLGVYFCSQSTRVPYTFGQGTKLEIK
notes: IgG1; Fab in monovalent BLI
B19: AL2p-h32 (antibody, IgG1, V domains shown)
VH: QVQLVQSGAEVKKPGSSVKVSCKASGYAFSSSWMNWVRQAPGQGLEWIGRIYPGDGDTNYNGEFRVRATLTADTSTTTAYMELSSLRSEDTAVYFCARLLRNQPGESYAMDYWGQGTLVTVSS
VL: DVVMTQTPLSLSVTPGQPASISCRSSQSLVHSNGYTYLHWYLQKPGQSPQLLIYKVSNRFSGVPDRFSGSGSGTDFTLKISRVEAEDLGVYFCSQSTRVPYTFGQGTKLEIK
notes: IgG1; Fab in monovalent BLI

Biological target: T1, human TREM2 expressed on cells
Test: FACS, BW cells
Method: To examine cell binding of anti-TREM2 antibodies, recombinant, human TREM2-expressing BW5147. G.1.4 cells (ATCC® TIB48™) were established by stably expressing either mouse TREM2 or human TREM2 together with Dap12 using viral infection. Cells were harvested by scraping, washed in PBS, counted and plated on 96-well U bottom plates at 1×10⁵ cells/well. The plates were spun at 1,400 rpm for 3 minutes and primary anti-TREM2 or control antibodies were added in FACS buffer (PBS+2% FBS) and incubated on ice for one hour. Cells were subsequently centrifuged as before and washed thrice with FACS buffer. Cells were then incubated with anti-human PE conjugated secondary antibody (BD Biosciences) in FACS buffer for 30 minutes on ice. Cells were again washed thrice with FACS buffer and analyzed on a BD FACS Canto. Binding was measured as mean fluorescence intensity in the […].

| Binder | Cell binding (FOB) [fold over background] |
| --- | --- |
| B1 | 83 |
| B2 | 78 |
| B3 | 87 |
| B4 | 76 |
| B5 | 61 |
| B6 | 76 |
| B7 | 78 |
| B8 | 88 |
| B9 | 74 |
| B10 | 84 |
| B11 | 69 |
| B12 | 79 |
| B13 | 80 |
| B14 | 93 |
| B15 | 69 |
| B16 | 69 |
| B17 | 90 |
| B18 | 78 |
| B19 | 81 |
